Molecular target: HLA-A2 on HLA-A2 positive lymphocytes / PBMCs (human)
Assay: cell-based or functional assay

conjugate C (streptavidin-linked BB7.2 monoclonal antibody mixed with biotinylated HLA-G) (from UniProt P22629 37-163; P17693 25-299)
G-Body inhibitory effect on proliferation of PBMCs; CD3/CD28 beads; HLA-A2 positive donor C; Day 7: 70% | G-Body inhibitory effect on proliferation of PBMCs; CD3/CD28 beads; HLA-A2 positive donor D; Day 7: 50% | G-Body inhibitory effect on proliferation of PBMCs; CD3/CD28 beads; HLA-A2 positive donor G; Day 3: 40% | G-Body inhibitory effect on proliferation of PBMCs; CD3/CD28 beads; HLA-A2 positive donor G; Day 7: 50% | G-Body inhibitory effect on proliferation of PBMCs; CD3/CD28 beads; HLA-A2 positive donor J; Day 3: 50% | G-Body inhibitory effect on proliferation of PBMCs; SEB; HLA-A2 positive donor C; Day 3: 60% | G-Body inhibitory effect on proliferation of PBMCs; SEB; HLA-A2 positive donor J; Day 3: 70% | G-Body inhibitory effect on proliferation of PBMCs; SEB; HLA-A2 positive donor J; Day 7: 70%

From patent publication US20180311373A1
